Several values for one entry are separate records, joined by “and”; a condition that tells them apart may be missing. Equal entries are not always repeated.
Key:
[1] = target: recombinant wild-type ADAMTS13 containing a V5- and a His-tag (wt-rADAMTS13) (human) (UniProt Q76LX8); assay: competition immuno-sorbent assay, fragment 10 nM pre-incubated with wt-rADAMTS13, immobilized pd-VWF
[2] = target: recombinant wild-type ADAMTS13 containing a V5- and a His-tag (wt-rADAMTS13) (human) (UniProt Q76LX8); assay: cell-based or functional assay
[3] = target: T1, purified plasma-derived von Willebrand factor (pd-VWF) (human, UniProt P04275 764-2813); assay: BLI (Octet-QK), equilibrium responses, mAb508 on protein A biosensors, pd-VWF in solution, single class of binding sites
T1 construct: mature; Multimeric plasma protein; also called full-length VWF; globular full-length VWF
Experimental: Subsequently, biosensors were incubated with various concentrations purified pd-VWF (0-0.2 mg/ml) and association of VWF was monitored real-time for a 10-min period until equilibrium was reached. Data represent mean±SD of four independent associations and depicted are the calculated responses (shift in nm) at equilibrium versus VWF concentration. The drawn line represents the best fit using a model describing the interaction of a single class of binding sites.
Biolayer interferometry-analysis: Equilibrium binding assays were performed via biolayer interferometry (BLI)-analysis using Octet-QK equipment (ForteBio, Reading, UK) essentially as described (26). […] Biosensors were then incubated for 5 min in BLI-buffer to achieve stable baseline, and subsequently incubated with various concentrations of pd-VWF in BLI-buffer for 10 min. All incubations were performed at room temperature under continuous shaking (1000 rpm). Data were analyzed using Octet Software version 4.0.

[4] = target: T1, purified plasma-derived von Willebrand …; assay: competitive immuno-sorbent assay, mAb508 0 to 50 µg/ml against ADAMTS13 (4 µg/ml) on coated VWF (2 µg/ml)
[5] = target: purified plasma-derived von Willebrand factor (pd-VWF), P04275

Row | Molecule | inhibition of ADAMTS13 binding to immobilized VWF [1] | other results
1 | A1-Fc (from UniProt P04275 1261-1478) (Fc fusion) | < 20% | –
2 | D4-Fc (from UniProt P04275 1947-2301) (Fc fusion) | < 20% | –
3 | D′D3-HPC4 (from UniProt P04275 764-1247) | < 20% | –
4 | anti-human von Willebrand factor monoclonal antibody 508 (mAb508) (antibody, mouse IgG1, kappa, V domains shown, Murine monoclonal antibody purified from hybridoma; also called antibody mAb508) VH: DVQLQESGPDLVEPSQSLSLSCTVTGYSITSGYSWHWIRQFPGNKLEWLGYIHYSGTTTYNPSLHSRVSITRDTSKNQFFLQLNSVSTEDTATYFCGREGYHWGQGTTLTVSS VL: DVVMTQTPLSLPVSLGDQASISCRSSQSLVHSIGNTYLHWYLQKPGQSPKLLIYKVSNRFSGVPDRFSGSGSGTDFTLKISRVEAEDLGVYFCSQTTHVPLTFGGGTRLEIKR | – | Kd [3]: 13 µg/mL and 52 nM; IC50 [4]: 0.09 µg/mL
5 | recombinant wild-type ADAMTS13 containing a V5- and a His-tag (wt-rADAMTS13) (protein) AAGGILHLELLVAVGPDVFQAHQEDTERYVLTNLNIGAELLRDPSLGAQFRVHLVKMVILTEPEGAPNITANLTSSLLSVCGWSQTINPEDDTDPGHADLVLYITRFDLELPDGNRQVRGVTQLGGACSPTWSCLITEDTGFDLGVTIAHEIGHSFGLEHDGAPGSGCGPSGHVMASDGAAPRAGLAWSPCSRRQLLSLLSAGRARCVWDPPRPQPGSAGHPPDAQPGLYYSANEQCRVAFGPKAVACTFAREHLDMCQALSCHTDPLDQSSCSRLLVPLLDGTECGVEKWCSKGRCRSLVELTPIAAVHGRWSSWGPRSPCSRSCGGGVVTRRRQCNNPRPAFGGRACVGADLQAEMCNTQACEKTQLEFMSQQCARTDGQPLRSSPGGASFYHWGAAVPHSQGDALCRHMCRAIGESFIMKRGDSFLDGTRCMPSGPREDGTLSLCVSGSCRTFGCDGRMDSQQVWDRCQVCGGDNSTCSPRKGSFTAGRAREYVTFLTVTPNLTSVYIANHRPLFTHLAVRIGGRYVVAGKMSISPNTTYPSLLEDGRVEYRVALTEDRLPRLEEIRIWGPLQEDADIQVYRRYGEEYGNLTRPDITFTYFQPKPRQAWVWAAVRGPCSVSCGAGLRWVNYSCLDQARKELVETVQCQGSQQPPAWPEACVLEPCPPYWAVGDFGPCSASCGGGLRERPVRCVEAQGSLLKTLPPARCRAGAQQPAVALETCNPQPCPARWEVSEPSSCTSAGGAGLALENETCVPGADGLEAPVTEGPGSVDEKLPAPEPCVGMSCPPGWGHLDATSAGEKAPSPWGSIRTGAQAAHVWTPAAGSCSVSCGRGLMELRFLCMDSALRVPVQEELCGLASKPGSRREVCQAVPCPARWQYKLAACSVSCGRGVVRRILYCARAHGEDDGEEILLDTQCQGLPRPEPQEACSLEPCPPRWKVMSLGPCSASCGLGTARRSVACVQLDQGQDVEVDEAACAALVRPEASVPCLIADCTYRWHVGTWMECSVSCGDGIQRRRDTCLGPQAQAPVPADFCQHLPKPVTVRGCWAGPCVGQGTPSLVPHEEAAAPGRTTATPAGASLEWSQARGLLFSPAPQPRRLLPGPQENSVQSSACGRQHLEPTGTIDMRGPGQADCAVAIGRPLGEVVTLRVLESSLNCSAGDMLLLWGRLTWRKMCRKLLDMTFSSKTNTLVVRQRCGRPGGGVLLRYGSQLAPETFYRECDMQLFGPWGEIVSPSLSPATSNAGGCRLFINVAPHARIAIHALATNMGAGTEGANASYILIRDTHSLRTTAFHGQQVLYWESESSQAEMEFSEGFLKAQASLRGQYWTLQSWVPEMQDPQSWKGKEGT | – | proteolytic cleavage of pd-VWF (30 µg/ml) by recombinant ADAMTS13 (3 µg/ml), vortex-based degradation assay [5]: proteolytic cleavage of pd-VWF (30 µg/ml) by recombinant ADAMTS13 (3 µg/ml) increases as a function of incubation time, with maximal degradation obtained after 30 min

More lines, main results first:

Row | inhibition of ADAMTS13 binding to immobilized VWF [1] | Molecule | other results
6 | 65% | A2-Fc (from UniProt P04275 1480-1672) (Fc fusion) | residual proteolysis of VWF by ADAMTS13, vortex-based degradation assay, A2-Fc 1 µg/ml [2]: 96%
7 | < 20% | A3-Fc (from UniProt P04275 1681-1878) (Fc fusion) | –

— patent US20170037148A1 (INSERM INSTITUT NATIONAL DE LA SANT ET DE LA RECHERCHE M …, published 2017)
